The labels stand for the following.
B1: gH3gL3 Fab′ (E. coli-produced) (Fab, V domains shown)
VH: EVQLVESGGGLVQPGGSLRLSCAASGFDFSRYDMSWVRQAPGKRLEWVAYISSGGGSTYFPDTVKGRFTISRDNAKNTLYLQMNSLRAEDTAVYYCARQNKKLTWFDYWGQGTLVTVSS
VL: DIQMTQSPSSLSASVGDRVTITCRTSGNIHNYLTWYQQKPGKAPQLLIYNAKTLADGVPSRFSGSGSGTQFTLTISSLQPEDFANYYCQHFWSLPFTFGQGTKVEIKR
notes: Unpegylated Fab′ with a modified hinge, purified from E. coli periplasm; also called gIC8 Fab′; IC8gL3gH3 Fab′
B2: double chimeric IC8 antibody molecule cHcL (antibody, V domains shown)
VH: DVQLVESGGGLVKPGGSLKLSCAASGFDFSRYDMSWVRQTPEKRLEWVAYISSGGGSTYFPDTVKGRFTISRDNAKNTLYLQMNNLQSEDTAMFYCARQNKKLTWFDYWGQGTLVTVSS
VL: DIQMTQSPASLSASVGETVTITCRTSGNIHNYLTWYQQNLGKSPQLLVYNAKTLADGVPSRFSGSGSGTQFSLTINSLQPEDFGNYYCQHFWSLPFTFGSGTKLEIKR
notes: Murine IC8 V-regions on human gamma-4 heavy and human kappa light constant regions (vectors pMRR14 and pMRR10), expressed in CHO-L761 cells
B3: CDR-grafted IC8 antibody gH1gL2 (antibody, V domains shown)
VH: EVQLVESGGGLVQPGGSLRLSCAASGFDFSRYDMSWVRQAPGKRLEWVAYISSGGGSTYFPDTVKGRFTISRDNAKNTLYLQMNSLRAEDTAMYYCARQNKKLTWFDYWGQGTLVTVSS
VL: DIQMTQSPSSLSASVGDRVTITCRTSGNIHNYLTWYQQKPGKAPQLLVYNAKTLADGVPSRFSGSGSGTQFTLTISSLQPEDFANYYCQHFWSLPFTFGQGTKVEIKR
notes: Human gamma-4 heavy and kappa light constant regions (pMRR14 and pMRR10), expressed in CHO-L761 cells
B4: CDR-grafted IC8 antibody gH1gL1 (antibody, V domains shown)
VH: EVQLVESGGGLVQPGGSLRLSCAASGFDFSRYDMSWVRQAPGKRLEWVAYISSGGGSTYFPDTVKGRFTISRDNAKNTLYLQMNSLRAEDTAMYYCARQNKKLTWFDYWGQGTLVTVSS
VL: DIQMTQSPSSLSASVGDRVTITCRTSGNIHNYLTWYQQKLGKAPQLLVYNAKTLADGVPSRFSGSGSGTQFTLTISSLQPEDFANYYCQHFWSLPFTFGQGTKVEIKR
notes: as for B3
B5: CDR-grafted IC8 antibody gH2gL3 (antibody, V domains shown)
VH: EVQLVESGGGLVQPGGSLRLSCAASGFDFSRYDMSWVRQAPGKGLEWVAYISSGGGSTYFPDTVKGRFTISRDNAKNTLYLQMNSLRAEDTAMYYCARQNKKLTWFDYWGQGTLVTVSS
VL: DIQMTQSPSSLSASVGDRVTITCRTSGNIHNYLTWYQQKPGKAPQLLIYNAKTLADGVPSRFSGSGSGTQFTLTISSLQPEDFANYYCQHFWSLPFTFGQGTKVEIKR
notes: as for B3
B6: CDR-grafted IC8 antibody gH1gL3 (antibody, V domains shown)
VH: EVQLVESGGGLVQPGGSLRLSCAASGFDFSRYDMSWVRQAPGKRLEWVAYISSGGGSTYFPDTVKGRFTISRDNAKNTLYLQMNSLRAEDTAMYYCARQNKKLTWFDYWGQGTLVTVSS
VL: DIQMTQSPSSLSASVGDRVTITCRTSGNIHNYLTWYQQKPGKAPQLLIYNAKTLADGVPSRFSGSGSGTQFTLTISSLQPEDFANYYCQHFWSLPFTFGQGTKVEIKR
notes: as for B3
B7: CDR-grafted IC8 antibody gH3gL1 (antibody, V domains shown)
VH: EVQLVESGGGLVQPGGSLRLSCAASGFDFSRYDMSWVRQAPGKRLEWVAYISSGGGSTYFPDTVKGRFTISRDNAKNTLYLQMNSLRAEDTAVYYCARQNKKLTWFDYWGQGTLVTVSS
VL: DIQMTQSPSSLSASVGDRVTITCRTSGNIHNYLTWYQQKLGKAPQLLVYNAKTLADGVPSRFSGSGSGTQFTLTISSLQPEDFANYYCQHFWSLPFTFGQGTKVEIKR
notes: as for B3
B8: CDR-grafted IC8 antibody gH3gL3 (antibody, V domains shown)
VH: EVQLVESGGGLVQPGGSLRLSCAASGFDFSRYDMSWVRQAPGKRLEWVAYISSGGGSTYFPDTVKGRFTISRDNAKNTLYLQMNSLRAEDTAVYYCARQNKKLTWFDYWGQGTLVTVSS
VL: DIQMTQSPSSLSASVGDRVTITCRTSGNIHNYLTWYQQKPGKAPQLLIYNAKTLADGVPSRFSGSGSGTQFTLTISSLQPEDFANYYCQHFWSLPFTFGQGTKVEIKR
notes: Human gamma-4 heavy and kappa light constant regions (pMRR14 and pMRR10), expressed in CHO-L761 cells; also called gL3gH3
B9: CDR-grafted IC8 antibody gH3gL2 (antibody, V domains shown)
VH: EVQLVESGGGLVQPGGSLRLSCAASGFDFSRYDMSWVRQAPGKRLEWVAYISSGGGSTYFPDTVKGRFTISRDNAKNTLYLQMNSLRAEDTAVYYCARQNKKLTWFDYWGQGTLVTVSS
VL: DIQMTQSPSSLSASVGDRVTITCRTSGNIHNYLTWYQQKPGKAPQLLVYNAKTLADGVPSRFSGSGSGTQFTLTISSLQPEDFANYYCQHFWSLPFTFGQGTKVEIKR
notes: as for B3
B10: CDR-grafted IC8 antibody gH2gL1 (antibody, V domains shown)
VH: EVQLVESGGGLVQPGGSLRLSCAASGFDFSRYDMSWVRQAPGKGLEWVAYISSGGGSTYFPDTVKGRFTISRDNAKNTLYLQMNSLRAEDTAMYYCARQNKKLTWFDYWGQGTLVTVSS
VL: DIQMTQSPSSLSASVGDRVTITCRTSGNIHNYLTWYQQKLGKAPQLLVYNAKTLADGVPSRFSGSGSGTQFTLTISSLQPEDFANYYCQHFWSLPFTFGQGTKVEIKR
notes: as for B3
B11: murine monoclonal antibody IC8 (antibody, V domains shown)
VH: DVQLVESGGGLVKPGGSLKLSCAASGFDFSRYDMSWVRQTPEKRLEWVAYISSGGGSTYFPDTVKGRFTISRDNAKNTLYLQMNNLQSEDTAMFYCARQNKKLTWFDYWGQGTLVTVSS
VL: DIQMTQSPASLSASVGETVTITCRTSGNIHNYLTWYQQNLGKSPQLLVYNAKTLADGVPSRFSGSGSGTQFSLTINSLQPEDFGNYYCQHFWSLPFTFGSGTKLEIKR
notes: Mouse monoclonal antibody from a hybridoma; also called mIC8; donor antibody

Several values for one entry are separate records, joined by “and”; a condition that tells them apart may be missing. Equal entries are not always repeated.

One assay addresses T1, recombinant human IL-1β (human, UniProt P01584 117-269).
T1 construct: Only the background speaks of the mature 17 kDa form; also called hIL-1β; interleukin-1β
The experiment in a line: BIAcore, Fab′ captured by anti-hF(ab′)2, IL-1β titrated in solution, 25 °C. On the procedure:
Affinipure goat anti-human IgG, F(ab′)₂ fragment-specific (Jackson ImmunoResearch Code 109-005-097) was immobilised on flowcell 2 of a CM5 Sensor Chip via amine coupling chemistry to a level of 13025RU. A blocked reference surface was prepared on flowcell 1 by activation with EDC/NHS and deactivation with ethanolaomine using the same volumes as for flowcell 2. HBS-EP buffer (10 mM HEPES pH 7.4, 0.15 M NaCl, 3 mM EDTA, 0.005% Surfactant P20, Biacore AB) was used as the running buffer and assays were performed at 25° C. Anti-IL-1β antibody was passed over flowcells 1 and 2 and captured on the immobilised anti-hF(ab′)₂ surface using a flowrate of 10 μl/min. IL-1β (Strathmann) from 400-0 nM was injected over the blocked and captured anti-IL-1β antibody surface using a flowrate of 30 μl/min for 3 min. The anti-hF(ab′)₂ surface was regenerated with a 30 μl injection of 40 mM HCl followed by a 15 μl injection of 5 mM NaOH. Kinetic parameters were calculated using BIAevalutation 3.1 software.
Background: In SPR one partner is held on a chip, and binding of the other changes the refractive index at the surface.
As a reminder, the Kd is a measure of binding affinity in units of concentration. B1: the Kd was determined as 0.32 nM.

For a further assay, the target named is T1, recombinant human IL-1β. The experiment in a line: BIAcore, antibody captured by anti-hFc, IL-1β titrated in solution, 25 °C. As for the experimental part: The assay format used anti-IL-1β antibody captured by anti-hFc with a titration of recombinant human IL-1β in the solution phase. Mouse anti-human IgG, Fc fragment-specific (Celltech) was immobilised on flowcell 2 of a CM5 Sensor Chip via amine coupling chemistry to a level of 12757RU. A blocked reference surface was prepared on flowcell 1 by activation with EDC/NHS and deactivation with ethanolamine using the same volumes as for flowcell 2. HBS-EP buffer (10 mM HEPES pH 7.4, 0.15 M NaCl, 3 mM EDTA, 0.005% Surfactant P20, Biacore AB) was used as the running buffer and assays were performed at 25° C. Anti-IL-1β antibody was passed over flowcells 1 and 2 and captured on the immobilised anti-hFc surface using a flowrate of 10 μl/min. IL-1β from 400-0 nM was injected over the blocked and captured anti-IL-1β antibody surface using a flowrate of 30 μl/min for 3 min. The anti-hFc surface was regenerated with a 30 μl injection of 40 mM HCl. Kinetic parameters were calculated using BIAevaluation 3.1 software.
Regarding B2, the dissociation constant Kd was 0.38 nM.
Still for that read-out and setting: the result for B3 reads 0.34 nM; that for B4, 0.35 nM; that for B5, 1.14 nM and 1.07 nM.
For the molecule B6, the Kd amounted to 0.3 nM.
In the case of B7, the Kd was found to be 0.28 nM.
Still for that read-out and setting: then B8, with 0.28 nM.
Same read-out and setting: the result for B9 reads 0.32 nM.
Still for that read-out and setting: then B10, with 1.27 nM.

A further assay has as its target T1, recombinant human IL-1β. Nature of the assay: BIAcore, captured antibody, IL-1β titrated in solution, 25 °C.
With B11, the Kd is 0.3 nM.
